Results from PMC8473560, “Molecular basis of C-S bond cleavage in the glycyl radical enzyme isethionate sulfite-lyase” (Cell Chemical Biology, 2021).

Legend:
[1] = biological target: T1, IslA (isethionate sulfite-lyase) (Bilophila wadsworthia, UniProt E5Y378); test: X-ray crystal structure, […] Å; assay type: binding; conditions: unactivated enzyme, aerobic, 30 mM sodium isethionate, pH 7.5, 22 °C; active site
T1 construct: full length, 830 residues, N-terminal His-tag kept (pET-28a), expressed in E. coli BL21(DE3); homodimer

O=S(=O)(O)CCO [2] = test: purified protein; conditions: IslA activated by IslB and S-adenosylmethionine, anoxic, 30 °C, isethionate 1-50 mM, kcat not normalized to glycyl radical content
O=S(=O)(O)CCO [3] = test: purified protein; assay type: biochemical, Bilophila wadsworthia; conditions: IslA activated by IslB and S-adenosylmethionine, anoxic, 30 °C, isethionate 1-50 mM, kcat not normalized to glycyl radical content
[4] = biological target: the molecule itself; test: crystal structure; hanging drop vapor diffusion at 22°C, aerobic; unactivated IslA with intact N-terminal His-tag, 7.5 mg/mL in 50 mM HEPES pH 7.5, 50 mM NaCl; glycerol-bound (2.26 Å, P21212) and isethionate-bound (2.70 Å, P212121) crystal forms

For O=S(=O)(O)CCO [isethionate, 2-hydroxyethanesulfonate], the “X-ray crystal structure, 2.70 Å” value [1] was “a second IslA structure with the substrate Ise bound was obtained”.

“IslA (isethionate sulfite-lyase) (Bilophila wadsworthia 3_1_6)” showed a Km (O=S(=O)(O)CCO [2]) of 8 ± 2 mM.

Work on “IslA (isethionate sulfite-lyase) (Bilophila wadsworthia 3_1_6; F682A)” yielded a Km (O=S(=O)(O)CCO [3]) of 6.8 ± 0.6 mM and a kcat (O=S(=O)(O)CCO [3]) of 0.0171 ± 0.0004 s⁻¹.

“IslA (isethionate sulfite-lyase) (Bilophila wadsworthia 3_1_6; F682Y)” gave a Km (O=S(=O)(O)CCO [3]) of 8 ± 1 mM and a kcat (O=S(=O)(O)CCO [3]) of 0.0074 ± 0.0003 s⁻¹.

With “IslA (isethionate sulfite-lyase) (Bilophila wadsworthia 3_1_6; I192A)” the Km (O=S(=O)(O)CCO [3]) was 12 ± 2 mM and the kcat (O=S(=O)(O)CCO [3]) was 0.4 ± 0.02 s⁻¹.

For “IslA (isethionate sulfite-lyase) (Bilophila wadsworthia 3_1_6; W374F)”, the Km (O=S(=O)(O)CCO [3]) was 11 ± 1 mM and the kcat (O=S(=O)(O)CCO [3]) was 0.063 ± 0.003 s⁻¹.

Work on “IslA (isethionate sulfite-lyase) (Bilophila wadsworthia 3_1_6; W374Y)” yielded a Km (O=S(=O)(O)CCO [3]) of 16.0 ± 0.9 mM and a kcat (O=S(=O)(O)CCO [3]) of 0.14 ± 0.003 s⁻¹.

B1: isethionate sulfite-lyase (IslA) from Bilophila wadsworthia 3.1.6 (enzyme)
chain: MTQVAEIKSPHEQRLEDNIAGKEDIYRESHKRVFKLLERFDGQKPAIDVERALYFTQSMAETVGQPLVLRWAKALMNVAKNITVMVQDDQLLLGRCGGHDGRYGILYPELDGDFLDIAVRDLPTRPQSPASISPEDAKIVVEQIAPFWKGRTYHEALNKALPAEVHKLTYDDPDGLISRFIVNETSSFRSSIQWVHDYEVVLKRGFNGLKQEMEEKLAALDPASPVDQVDKRPFIEATILVCDAIVLWAKRHADAARKAAEACADPVRKAELIRMAENAEHVPANPARDFYEAVQSQYFTQMFSRLEQKTGTTISNGRMDQYFYPFYKKDMEAGILTDEKTLEYLECMWVGMAEFIDMYISPAGGAFNEGYAHWEAVTIGGQTPDGRDATNDLTYLFLKSKREFPLHYPDLAARIHSRAPERYLWDVAETIKFGSGFPKLCNDEECIPLYVSKGATFEEALDYAVSGCIEIRMPNRDTYTSGGAYTNFASAVEMALYDGKMKKYGDVQLGIQTGDARKFKSWDEFWNAYVQQHMLLLRTTFIQQYIVIQTRAKHFAQPMGSVLHALCRKHCIDLHQPQIPEGLNFGYFEFMGLGTVIDSLAAIKKLVFEDKKLTMDQLIDALEANFEGYEDIQQLLRTAPCYGNDDEYADEIGRELDRMAVSFAAKYGKEMGINNDARYVPFTSHVPFGKVVSATPNGRVAWFPLADGSSPSHGADHNGPTAILLSNHNTKNYGMRARAARLINVKFTPKCVEGDAGTEKLVQFIRTWCDLKLWHIQFNVINADTLKKAQKDPQKYRNLIVRIAGYSAYFVDLTPDLQNDLIARTGHDQM
notes: Isethionate sulfite-lyase IslA, Bilophila wadsworthia 3.1.6, wild type; expressed from pET-28a-IslA (Peck et al., 2019); It calls the structure native/wild-type and gives '6-830 (of 830 residues)', so the whole protein is likely, but the words 'full length' are not used; also called IsIA; wild-type IslA; source: E. coli BL21(DE3), purified (Ni-NTA, dialysis); not shown: His-tag, N-terminal, kept
With B1 the “stoichiometry N” value [4] was 2.
